Publication PMC7806596, “Regulation of trehalase activity by multi-site phosphorylation and 14-3-3 interaction” (Scientific Reports, 2021)
Blank lines part the entries; values can stand above or below the molecule they belong to.

Tests used:
[1] = target: Bmh1 (UniProt P29311); assay: anti-FLAG co-IP, anti-V5 blot; conditions: reference: wild type
[2] = target: full-length 3xFLAG-tagged Nth1^S83A (S. cerevisiae) (UniProt P32356); assay: co-IP; Nth1-3xFLAG precipitated with anti-FLAG M2 magnetic beads, Bmh1-V5 detected by blot; stationary phase cells recovered by dilution in 1% glucose minimal medium (5 min after glucose replenishment); 25 mM Tris-HCl pH 7.5, 150 mM NaCl, 5 mM CaCl2, 0.1% Triton X-100, 4 °C, 1 h
[3] = target: T1, recombinant full-length 6xHis-tagged Nth1 phosphorylated in vitro with PKA (S. cerevisiae, UniProt P32356 1-751, fully phosphorylated with 3 nM PKA in vitro); assay: phosphatase shielding assay (Phos-tag autoradiograph and mass spectrometry); 1 µM 6xHis-Nth1 phosphorylated with 3 nM PKA in presence or absence of Bmh1 (5:1, Bmh1:Nth1); at 30 min PKA inhibitor and lambda phosphatase (90 U/µl, 1 mM MnCl2) added; conditions: both partners purified
T1 construct: neutral trehalase Nth1, S. cerevisiae, full length, expressed from pET28a; also called 6xHis-Nth1
T1 sequence (looked up): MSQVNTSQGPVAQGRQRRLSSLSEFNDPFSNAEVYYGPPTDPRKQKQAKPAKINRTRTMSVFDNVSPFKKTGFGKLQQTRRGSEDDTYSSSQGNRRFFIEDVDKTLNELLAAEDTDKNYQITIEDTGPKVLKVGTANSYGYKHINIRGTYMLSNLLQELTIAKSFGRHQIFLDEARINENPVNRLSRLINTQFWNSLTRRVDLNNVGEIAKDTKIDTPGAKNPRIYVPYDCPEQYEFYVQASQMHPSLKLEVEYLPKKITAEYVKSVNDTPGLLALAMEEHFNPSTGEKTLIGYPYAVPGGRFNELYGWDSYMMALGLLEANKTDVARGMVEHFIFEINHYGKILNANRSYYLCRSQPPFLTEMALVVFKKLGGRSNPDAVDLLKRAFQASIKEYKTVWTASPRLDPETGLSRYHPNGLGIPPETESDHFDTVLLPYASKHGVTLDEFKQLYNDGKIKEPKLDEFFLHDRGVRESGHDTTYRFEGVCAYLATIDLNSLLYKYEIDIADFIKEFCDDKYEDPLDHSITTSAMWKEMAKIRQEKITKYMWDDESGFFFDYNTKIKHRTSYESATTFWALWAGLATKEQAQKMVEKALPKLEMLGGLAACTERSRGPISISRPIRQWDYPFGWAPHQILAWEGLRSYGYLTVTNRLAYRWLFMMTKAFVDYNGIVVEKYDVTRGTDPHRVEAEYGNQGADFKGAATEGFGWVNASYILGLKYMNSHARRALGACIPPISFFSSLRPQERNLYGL

[4] = target: T2, Nth1-Strep phosphorylated in vitro with PKA and CyclinB-Cdk1 (S. cerevisiae, UniProt P32356 1-751, full phosphorylation by Cdk1 (site S66) and partial phosphorylation of the PKA sites by PKA (15 nM or 1.5 nM) in vitro); assay: pull-down; called co-IP by the paper; 6xHis-Bmh1 from BL21RP lysate loaded on Chelating Sepharose and washed, mixed 10 min with in vitro phosphorylated Nth1-Strep (200 ng per sample); washed with 25 mM Tris-HCl pH 7.4, 150 mM NaCl, 5 mM CaCl2; bound Nth1-Strep detected by blot (StrepMAB-Classic); conditions: both partners purified
T2 construct: neutral trehalase Nth1, S. cerevisiae, full length, expressed from pASK-Iba3; also called Nth1-Strep-tagged; source: E. coli BL21(DE3)RP, purified (Strep-Tactin II Superflow), phosphorylated in vitro with PKA and cyclin B-Cdk1
T2 sequence (looked up): T1 sequence (looked up)

percent of reference ([1]; sites S60): 30%
Molecule: Nth1 (from UniProt P32356) S60A

percent of reference ([1]; sites S66): 50%
Molecule: Nth1 (from UniProt P32356) S66A

binding result [3]: binds
binding result [4]: binds
B1: recombinant full-length 6xHis-tagged Bmh1 (natural protein, S. cerevisiae, UniProt P29311 1-267, looked up)
chain: MSTSREDSVYLAKLAEQAERYEEMVENMKTVASSGQELSVEERNLLSVAYKNVIGARRASWRIVSSIEQKEESKEKSEHQVELICSYRSKIETELTKISDDILSVLDSHLIPSATTGESKVFYYKMKGDYHRYLAEFSSGDAREKATNASLEAYKTASEIATTELPPTHPIRLGLALNFSVFYYEIQNSPDKACHLAKQAFDDAIAELDTLSEESYKDSTLIMQLLRDNLTLWTSDMSESGQAEDQQQQQQHQQQQPPAAAEGEAPK
notes: 14-3-3 protein Bmh1, S. cerevisiae, full length, expressed from pET28a; also called 6xHis-Bmh1; Bhm1; source: E. coli BL21(DE3)RP

The next lines start with the molecule.

Molecule: Nth1 (from UniProt P32356) S83A
percent of reference ([1]; sites S83): < 10%

Molecule: V5-tagged Bmh1 (from UniProt P29311 1-267) (natural protein)
bound Bmh1, percent normalised to WT [2]: < 10%
